# Measured values reported in ChEMBL document CHEMBL3526099, “Metabolism of triethylenetetramine and 1,12-diamino-3,6,9-triazadodecane by the spermidine/spermine-N(1)-acetyltransferase and thialysine acetyltransferase” (Drug Metab Dispos, 2013).
# Substrate: NCCNCCNCCN
# Experiment: not read
protein,measurement,value
Thialysine N-epsilon-acetyltransferase (Homo sapiens) (protein) MASVRIREAKEGDCGDILRLIRELAEFEKLSDQVKISEEALRADGFGDNPFYHCLVAEILPAPGKLLGPCVVGYGIYYFIYSTWKGRTIYLEDIYVMPEYRGQGIGSKIIKKVAEVALDKGCSQFRLAVLDWNQRAMDLYKALGAQDLTEAEGWHFFCFQGEATRKLAGK,Km,2500 µM
same,Vmax,3.96 µmol/min/mg
